Assay results: publication PMC9040003 (Science (New York, N.Y.), 2022)

Tests used:
Format in all cases: binding, Arabidopsis thaliana
[1] = tested on: FER ectodomain (6×His-tagged); conditions: 6×His-tagged ectodomain purified from insect cells; biotinylated peptide
[2] = tested on: HERK1 ectodomain (6×His-tagged); conditions: 6×His-tagged ectodomain purified from insect cells; biotinylated peptide
[3] = tested on: HERK1 ectodomain (MBP-tagged); conditions: MBP-tagged ectodomain purified from Escherichia coli; biotinylated peptide
[4] = tested on: FER ectodomain (MBP-tagged); conditions: MBP-tagged ectodomain purified from Escherichia coli; biotinylated peptide
[5] = tested on: ANJ ectodomain (6×His-tagged); conditions: 6×His-tagged ectodomain purified from insect cells; biotinylated peptide
[6] = tested on: ANJ ectodomain (MBP-tagged); conditions: MBP-tagged ectodomain purified from Escherichia coli; biotinylated peptide

binding to FER ectodomain (pull-down) [1]: bind | binding to HERK1 ectodomain (pull-down) [2]: bind | binding to HERK1 ectodomain (pull-down) [3]: bind | binding to FER ectodomain (pull-down) [4]: bind | binding to ANJ ectodomain (pull-down) [5]: bind | binding to ANJ ectodomain (pull-down) [6]: bind
B1: RALF16: RALF (rapid alkalinization factor) peptide, pollen tube–specific, Arabidopsis (peptide)
peptide: RTLGYGSIKGDRIPACGYKNPNSCVKQPVNHYHRGCEKITRCARDAARYTESFNVDDDESPIINLH
modifications: also: biotin, position not given here
